System: MS2 coat protein
Test: apparent KD of MS2 coat protein; designed switch direction (-1 OFF switch, 1 ON switch): -1; higher = weaker reporter binding
Summary of the method: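 An oligonucleotide input, 200 uM small-molecule ligand, or no input was present during titration of SNAP-549-labelled MS2 coat protein, which was doubled from 0.7 or 1.5 nM to 3 µM. Designed RNA switches had been transcribed on Illumina chips by stalled E. coli RNA polymerase. Apparent KD per design is the median over clusters of curves fitted to normalised cluster fluorescence.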

[1] = input ligand: microRNA oligo, concentration not stated
[2] = Eterna round: R95, input ligand: FMN 200 uM
[3] = Eterna round: R95, input ligand: microRNA oligo, concentration not stated
[4] = Eterna round: R95, input ligand: none

Row | Sequence | apparent KD of MS2 coat protein (input ligand: FMN 200 uM) [nM] | apparent KD of MS2 coat protein [1] [nM] | apparent KD of MS2 coat protein (input ligand: none) [nM] | apparent KD of MS2 coat protein [2] [nM] | apparent KD of MS2 coat protein [3] [nM] | apparent KD of MS2 coat protein [4] [nM]
1 | UUGGUUGUGGUAGGAUAUCCGUUGGAAACUGUUGGAGAAGGACCACAGUCACUGGGUCUUUGUUUGGUGGAGUGGAAGAACCAU [pwkr exNG1 F6.18] (Eterna round: R96, puzzle: Exclusion NG 1) | 166 | 532 | 324 |  |  | 
2 | GUGGGUUACAUGAGGAUCACCCAUGUAGAGUGGGAAGAGAGAUAGGAUAUGAUGUGAGAAUUAUAUUAGAAGGAUCGAGACUCG [AK ExNG3-2.5] (Eterna round: R96, puzzle: Exclusion NG 3) | 246 | 174 | 285 |  |  | 
3 | AGUAGAUCUACGCUUGCGUGGAUCUGCUAUGCAGGUGUUACAUGAGGAUCACCCAUGUCCUCGUUUGCUCGUCUUAU [JL turnoff v2 99.13] (puzzle: Sensor v3, turn-off variant 2) |  |  |  | 333 | 693 | 448
4 | UUUAAUUGUCAGAUGGGUGACAUGAGGAUCACCCAUGUCACAAGCUUUUUGUUCGUCUUAUAAUUAACCCAUCUGAC [Stov1/11-B1] (Eterna round: R97, puzzle: Sensor, turn-off variant 1) | 14 |  | 13.8 |  |  | 
5 | AUAAGUAUAUAGGAUAUCUAGCUGGAAACAGCUAGAGAAGGAUGUACAUGAGGAUCACCCAUGUAAAUCUCAAU [Ex6/12-A3] (Eterna round: R97, puzzle: Exclusion 6) | 16.3 |  | 14.1 |  |  | 
6 | AAAUAACCUCUAGGAUAUGUGUACGUAUAGUGCGCAGAAGGAGACAUGAGGAUCACCCAUGUACACACACAACAAACGACCACC (Eterna round: R96, puzzle: Exclusion NG 1) | 26.1 | 27.3 | 30.4 |  |  | 
7 | GUGUACGGAGGAUAUAUGUGGUGAGCAUACGCUCAAGCUUCACAUGAGGAUCACCCAUGUAGAAGGCUGUGCAC [JL-ex2-2.13 Brourd mod] (puzzle: Exclusion 2) |  |  |  |  | 118 | 
8 | CUGAGCUGAGGAUAUACAUGAGGAUCACCCAUGUGAAGUAGCUUGCGUACAGGCAGAUGUAGAAGGCAGUUCGG [Mod of JL 1 - Jieux - Exclusion 3] (Eterna round: R97, puzzle: Exclusion 3) | 250 |  | 42.1 |  |  | 
9 | UUUAAUUUAAUUAAGAUCACAUGAGGAUCACCCAUGUAAUUAUAGGAUAUCAGCUCGUUUAGAGCUGAGAAGGAUAAUUACAUA [ExNG3/5-A2] (Eterna round: R96, puzzle: Exclusion NG 3) |  | 23.8 |  |  |  | 
10 | UAUCUACAUGAGGAUCACCCAUGUGAGGAUAUCAAAACCAGAGCGGAUCUCUGGCCCAUGAGAAGGUACAUGGU [ElNandoxlusion 5 - Jieux - Exclusion 1] (Eterna round: R97, puzzle: Exclusion 1) | 59.2 |  | 20 |  |  | 
11 | CUUUUGUCAGGAUAUGAGUAGUAGAACAAUAGUACUACUACUCAGAAGGGACAUGAGGAUCACCCAUGUUCCUC [Fiskers Ex 4 Super stable 44 mod 19] (puzzle: Exclusion 4) |  |  |  |  | 16.2 | 
12 | UCGGCGCGAGGAUAUGCGGCUGGUGCUUCGGGCCCUCGCGUACAUGAGGAUCACCCAUGUAGAAGGCGCGCCGC [Apr-15 SS2-43] (puzzle: Exclusion 2) |  |  |  |  | 20.5 | 
13 | UGCCUAAGAGGAUAUACAUAGAAAUAGAUUCAUGUAAAACUACAUGAGGAUCACCCAUGUAGAAGGCUUGGGCU [Mat - Exclusion 2 - JL Mod - D54] (Eterna round: R97, puzzle: Exclusion 2) | 155 |  | 27.6 |  |  | 
14 | GGUCAGAUGGUAGGAUAUCUAUAUCGAGUGACCCUUUCAUAACAUGAGGAUCACCCAUGUCGGUGGGAGAAGGGCCGUACGGCG [salish99_ExNG02_R04_012] (Eterna round: R96, puzzle: Exclusion NG 2) | 41.1 | 30.6 | 40.2 |  |  | 
15 | AAUGAUUGACGAGGAUAUUGUGGUAGAUCACGACGAGAAGGCGUUUGUCACAUGAGGAUCACCCAUGUGAGCCUUGUGGAUAGA [Ex NG1 #75] (Eterna round: R96, puzzle: Exclusion NG 1) | 160 | 20.1 | 30.9 |  |  | 
16 | GCCGAUUAAGUGAGGAUAUACCUAUGGAUACAUAGGUAGAAGGCACAUGAGGAUCACCCAUGUUCCUCAACGGC [Fiskers BMX 4 - 6] (puzzle: Brourd's mod of Exclusion 4) |  |  |  |  | 15 | 
17 | GGCGGACAUGAGGAUCACCCAUGUCAGGAUAUUAGGCGAUCGUCGAUAGACGAUAGCCUGAGAAGGGACGCGCC [Mat - Exclusion 1 - Eli Mod - D13] (Eterna round: R97, puzzle: Exclusion 1) | 18.6 |  | 17.7 |  |  | 

Row | Sequence | apparent KD of MS2 coat protein (input ligand: FMN 200 uM) [nM] | apparent KD of MS2 coat protein [1] [nM] | apparent KD of MS2 coat protein (input ligand: none) [nM] | apparent KD of MS2 coat protein [2] [nM] | apparent KD of MS2 coat protein [3] [nM] | apparent KD of MS2 coat protein [4] [nM]
18 | UAUAUAUAGUAAGGAUAUGUAUUAAUUGUAUAAACAGAAGGUACUGACAUGAGGAUCACCCAUGUUUUAGUGUGGGCAUGUAGA [JMF's solution 81] (Eterna round: R96, puzzle: Exclusion NG 1) |  | 71.7 |  |  |  | 
19 | UAAAAGGUAGGAUAUACGAAAAAAAAGGGUAGAAAAAAAACACAUGAGGAUCACCCAUGUAGAAGGACCAAAAU [salish99_ex2_r3_041] (puzzle: Exclusion 2) |  |  |  | 89.7 | 28.6 | 26.9
20 | UGUAUACAUGAGGAUCACCCAUGUAAGGAUAUACAUCAGAUCGACACCGGACUGGCCCGUAGAAGGUGCGUGGA [Eternabot (L2) Solution 67] (Eterna round: R97, puzzle: Exclusion 1) | 24.9 |  | 24 |  |  | 
21 | CUUUUGUGAGGAUAUCAGUUGUAAAUAAAUAAAAUUACUACUGAGAAGGCACAUGAGGAUCACCCAUGUUCCUC [salish99_ex3_r3_073] (puzzle: Exclusion 4) |  |  |  |  | 37.8 | 
22 | AGUACUAACACGAAAGUGUUAGUACAAUAAGCUAGUGGAACAUGAGGAUCACCCAUGUCCUCAUUAGCUCGUCUUGG [Mat - Sensor v3 - Turn-off var 2 - D40] (puzzle: Sensor v3, turn-off variant 2) |  |  |  | 16.4 | 19.6 | 14.6
23 | GAAGAGACAGGAUAUACAUGAGGAUCACCCAUGUGAGGAGGUUGGAGGCGGAGAAGGUGUAGAAGGGUCAAAGA [JR_Exclu3_Sub022] (puzzle: Exclusion 3) |  |  |  | 41.5 | 36 | 51.4
24 | ACAUGAGGAUCACCCAUGUGACAAUAAUGGCUGAUAUAGAAACAGGAUAUUCGUGAAUAUCUAACGAAGAAGGGUUAUGACUGG [Deportation 67 - Jieux - Exclusion NG 3] (Eterna round: R96, puzzle: Exclusion NG 3) | 49 | 38.3 | 51.8 |  |  | 
25 | UAAUUAAGUGUGAGGAUAUGCUGGUCCUUGGAUCAGCAGAAGGCACAUGAGGAUCACCCAUGUAAAUUAUUUAU [Mat - Exclusion 4 - JL Mod - D60] (Eterna round: R96, puzzle: Brourd's mod of Exclusion 4) | 332 | 54 | 76.5 |  |  | 
26 | AGAGAAUAGUCAGGAUAUGUGAAUAGAUAGAGAACAGAAGGGACACAUGAGGAUCACCCAUGUGAAGUCUUGAGGCUGCAUGGA [Prohibition 22 - Jieux - Exclusion NG 1] (Eterna round: R96, puzzle: Exclusion NG 1) | 43.9 | 24.1 | 39 |  |  | 
27 | CCUCUGUUAGGAUAUCAAACACUAUCUGCUCCAGAGUUAAGUGAGAAGGGACAUGAGGAUCACCCAUGUAAAAU [Isreusraar] (puzzle: Exclusion 4) |  |  |  |  | 26.2 | 
28 | UAGAUGCUCAGGGAGUGUGACAUGAGGAUCACCCAUGUGGUGGUAGGGAACAAGCUUUUUGCACGUACUUAUGAGUA [JR_SV3TOV1_Sub007] (Eterna round: R96, puzzle: Sensor v3, turn-off variant 1) | 435 | 148 | 497 |  |  | 
29 | UUAAAUCAUGUAGGAUAUGCGUGGCGAAGCUAUGCAGAAGGACAUGAGGAUCACCCAUGUGCUUGCGUCCGCGUACGGAUGCUA [JL ENG1 1.22] (Eterna round: R96, puzzle: Exclusion NG 1) | 195 | 94 | 104 |  |  | 
30 | AAUUUACAUGAGGAUCACCCAUGUCAGGAUAUGGUUUUAUUUUUUUUUUUUUUUUAUUCCAGAAGGGACAGUUA (puzzle: Exclusion 1) |  |  |  | 24.2 | 17 | 14.8
31 | UGAAAGGUAGGAUAUACGAAGAAAAAGGGUAGAAUAAUAACACAUGAGGAUCACCCAUGUAGAAGGACCAAAGU [Mat - Exclusion 2 - Mod of my Tesla design - D10] (puzzle: Exclusion 2) |  |  |  | 51.7 | 26.2 | 24.6
32 | GCAGGUCAAGGAUAUACAUGAGGAUCACCCAUGUGAUUAGCAGUCCUCGGACUGCAAUGUAGAAGGUGACCUGC [E3/2-C2] (Eterna round: R97, puzzle: Exclusion 3) | 2140 |  | 329 |  |  | 
33 | UGUGCGUAUGUGAGGAUAUGCUGGUCCUUGGAUCGGCAGAAGGCACAUGAGGAUCACCCAUGUGGUGUCGUUCU [salish99_Bmod_ex4_096] (puzzle: Brourd's mod of Exclusion 4) |  |  |  |  | 188 | 
34 | GAAAAGGUAGGAUAUACGAUAAUAAAGGGUAGAUAAUAAACACAUGAGGAUCACCCAUGUAGAAGGACCAAAAG [salish99_ex2_r3_103] (puzzle: Exclusion 2) |  |  |  | 127 | 35 | 35.2

Source: the supplement of paper PMC9170038
